This note sets out measurements from article PMC3326535.

The target in assay [1] is Human quinolinate phosphoribosyltransferase (hQPRTase) (human) (UniProt Q15274). The assay is described as follows: SEC. In general terms: SEC sorts molecules by how far they enter the pores of the column.
The target is the same in assay [2]. The assay can be described thus: crystal structure.

Broadly, the stoichiometry N is a count of units in the complex or per binding partner. As to “Human quinolinate phosphoribosyltransferase (hQPRTase) (from UniProt Q15274 1-297) (enzyme)”, the stoichiometry N in assay [1] and in assay [2] was 6 in each case.
